Assay: yeast display, Sf9 membrane polyspecificity reagent, FACS + sequencing; frameworks hold sequencing errors
Outline: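 Genes from sorted yeast were amplified by colony PCR, read by MiSeq 2 × 250 sequencing and filtered on CDR length. These cells carried a synthetic nanobody library in Saccharomyces cerevisiae BJ5465 and were sorted by FACS into low and high (top ~1%) gates on anti-HA and streptavidin fluorescence. Polyreactivity is labelled according to the gate of origin.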

Row | Sequence | polyreactivity (PSR sort gate)
1 | QVQLVESGGGLVQAGGSLRLSCAASGYIFDFYDMGWYRQAPGKERELVAAITSGGSTNYADSVKGRFTISRDNAKNTVYLQMNSLKPEDTAVYYCAASFVGHIYWGARVPYYYNHDYWGQGTQVTVSS | high polyreactivity
2 | QVQLVESGGGLVQAGGSLRLSCAASGYIFDHYAMGWYRQAPGKEREFVAAISRSAGSTYYADSVKGRFTISRDNAQNTVYLQMNSLKPEDTAVYYCNAVVAVRSWRKYEYWGQGTQVTVSS | high polyreactivity
3 | QVQLVESGGGLVQAGGSLRLSCAASGYIFDIYAMGWYRQAPGKEMQLVAVITRSGGGTYYADSVKGRFTISRDNAKNTVYLQMNSLKPEDTAVYYCAAESFVYGGSDYDYWGQGTQVTVSS | low polyreactivity
4 | QVQLVESGGGLVQAGGSLRLSCAASGYIFDRNAMGWYRQAPGKERELVAAITKRGGITYYADSVKGRFTISRDNAKNTVYLQMNSLKPEDTAVFYWNALARSSRYDYWGQGTQVTVSS | high polyreactivity
5 | QVQLVESGGGLVQAGGSLRLSCAASGYIFDRNSMGWYRQAPGKERELVAAITKRGGITYYADSVKGRFTISRDNAKNTVYLQMNSLKPEDTAVYYCNALARSSRYDYWGQGTQVTVSS | high polyreactivity
6 | QVQLVESGGGLVQAGGSLRLSCAASGYIFDRYAMGWYRKAPGKEREMVAPISGRGGSTYYADSVKGRFSISRDNAKNTVFLQMNSLKPEDTAVYYCARDVYVRNGQRARYVSWGQGTQVTVSS | high polyreactivity
7 | QVQLVESGGGLVQAGGSLRLSCAASGYIFDYNAMGWYRQAPGKERELVAAITFRDGSTYADSVKGRFTISRDNAKNTVYLQMNSLKPEDTAVYYCNRRSQVHSHSKHDYWGQGTLVTVSS | low polyreactivity
8 | QVQLVESGGGLVQAGGSLRLSCAASGYIFERNAMGWYRQAPGKERELVAAITDDGDDTYYADSVKGRFTISRDNAKNTVFLLMNSLKPEDTAVYYCAKDLYYGDYYYWGQGTQVTVSS | low polyreactivity
9 | QVQLVESGGGLVQAGGSLRLSCAASGYIFERYAMGWYRPAPGKERELVAAISSGGGRTYYADSVKGRFTISRDNAKNPVYLQMNSLQPEDTAVYYCAADHWWISSYWGQGTQVTVSS | high polyreactivity
10 | QVQLVESGGGLVQAGGSLRLSCAASGYIFEVNTMGWYIQAPGKERELVAAITSGGTTYYADSVKGRFTISRDNAKNTVYLQMNSLKPDDTAVYYCAALWSRRRSRPRFDYWGQGTQVTVSS | high polyreactivity
11 | QVQLVESGGGLVQAGGSLRLSCAASGYIFEYYAMGWYRQAPGKERELVAAISWSGGSTYYADSVKGRFTISRDNAKNTVYFQLNSLKPVDTAVYYCAAEYVTYQQGLWGYDYWGQGTQVTVSS | low polyreactivity
12 | QVQLVESGGGLVQAGGSLRLSCAASGYIFGFYAMGWYRQAPGKERELVSRITYSGTSTYYADSVKGRFTISRDNAKNTVYLQMNSLKPEDTAVYYCATDFVRHAGWRRYDYWGQGTQVTVSS | low polyreactivity
13 | QVQLVESGGGLVQAGGSLRLSCAASGYIFGGNAMGSYRPAPGNPRELVAAISSSSGGTYYADSVKGRFTISRDNAKNTVYLQMNSLKPEDTAVYYCAAAPVDYEYDYWGQGTQVTVSS | low polyreactivity
14 | QVQLVESGGGLVQAGGSLRLSCAASGYIFGRNARGWYRQAQGKERELVAVISSRGSRTYYADSVKGRYTISRDNAKNTVYLQMNSLKPEDTAVYYCNAVMWWDWEYDFYYWGQGNQVTVSS | high polyreactivity
15 | QVQLVESGGGLVQAGGSLRLSCAASGYIFGVYAMGWYRQAPGKERELVARITSGGSTNYADSVKGRFTISRDNAKNTVYLQMNSLKPEDTAVYYCAAAVGNTDREYDYWGQGTQVTVSS | low polyreactivity
16 | QVQLVESGGGLVQAGGSLRLSCAASGYIFGWYTMGWYRQAPGKEREFVASISNSDASTYYADSVKGRFTISRDNAKNTVYLQMNSLKPEDTAVYYCAADTTYWHWIYYYWGQGTQVTVSS | low polyreactivity
17 | QVQLVESGGGLVQAGGSLRLSCAASGYIFGYNTMGWYRQAPGKERELVAAISKSGGRTYYADSVKGRFTISRDNAKNTVYLQMNSLKPEDTAVYYCAADGWSGKLRYTRYDYWGQGTQVTVSS | high polyreactivity
18 | QVQLVESGGGLVQAGGSLRLSCAASGYIFHLYGMGWYRQAPGKERELVARISYRGGSTYYADSVKGRFTISRDNAMKTVYLQRNSLKPEETAVYYCAAYRRQHIIYNYWGQGTQVSVSS | high polyreactivity
19 | QVQLVESGGGLVQAGGSLRLSCAASGYIFHNYAMGWYIQAPGKERELVAAITRSAGRTYYADSVKGRFTISRDNAKNTVYLQMNSLKPEDTAVYYCNARYGGRFYYCGQGTQVTVSS | high polyreactivity
20 | QVQLVESGGGLVQAGGSLRLSCAASGYIFISYAMGWYRQAPGKEREFVAAITGDGGSTYADSVKGRFSISRDNAKNTVYLQMNSLKPEDTAVYYCAVDGYGGEADYEYDHCGQGTQVTVSS | low polyreactivity
21 | QVQLVESGGGLVQAGGSLRLSCAASGYIFITYAMGWYRQAPGKERELVAAISRRGGRTYYADSVKGRFTISRDNAKNTVYLQMNSLKPEDTAVYYCAADPATSVYGGLNYWGQGTQVTVSS | high polyreactivity
22 | QVQLVESGGGLVQAGGSLRLSCAASGYIFKVNSMGWYRPAPGKERELDADISSNSGSTRYADSVKARFTISRDNAKNTVYLQMNSLKQDDTAVYYCAADGRYWVKPGSPWDRSRYDYWGQGTQVTVSS | low polyreactivity

Row | Sequence | polyreactivity (PSR sort gate)
23 | QVQLVESGGGLVQAGGSLRLSCAASGYIFLGYAMGWYRQAPGKERELVAAISSRGGSTYYADSVKGRFTISRDNAKNTVYLQMNSLKPEDTAVYYCAAYRFSDRAAYGYYDRHYYWGQGTQVTVSS | high polyreactivity
24 | QVQLVESGGGLVQAGGSLRLSCAASGYIFLPNTMGWYRQAPGKERELVAVISKSGTSTYYADSVKGRFTISRDNAKNTVYLQMNSLKPEDTAVYYCNRVYRLTAYGYDYWGQGTQVTLSS | high polyreactivity
25 | QVQLVESGGGLVQAGGSLRLSCAASGYIFNRYVMGWYRQAPGKERELVAAITWRGGTTYADSVKGRFTISRDNAKNTVYLLMNSLKPEDTAVYYCAARRYPFEYDYWGQGTQVTVSS | high polyreactivity
26 | QVQLVESGGGLVQAGGSLRLSCAASGYIFNSNTMGWYRPAPGKERELVAAITSSGGRTNYADSVKGRFTISRDNAKNTVYLQMNSLKPEDTAVYYCATRVYYRAGRYKYDYWGQGTQVTVSS | high polyreactivity
27 | QVQLVESGGGLVQAGGSLRLSCAASGYIFPAYAMGWYRQAPGKERELVAAISWSTGSTYYADSVKGRFTISRDNAKNTVYLQMNSLKPEDTAVYYCAAGRPRRVPDHWYIYYYWGQGTQVTVSS | low polyreactivity
28 | QVQLVESGGGLVQAGGSLRLSCAASGYIFPTYAMGWYRQEPGKERELVAAISISGGDTYYADSVKGRFTISRDNAKNTVYLQMNSLKPEDTAVYYCAAVKYETYRYNYDYWGQGTQVTVSS | high polyreactivity
29 | QVQLVESGGGLVQAGGSLRLSCAASGYIFPWYDMGWYRQAPGKERELVAAISWSGGSTYSADSVKGRFTISRDNAKNTVDLQMNSLKPEDTAVYYCAAYLSHYATRYGYWGHGTQVTVSS | high polyreactivity
30 | QVQLVESGGGLVQAGGSLRLSCAASGYIFPYNAMGWYRQAPGKERELVAAISASGGTTYYADSVKGRFTISRDNAKNTVYLQMNSLKPEDTAVYYCAASFAVTSGHHYEYWGQGTQVTVSS | high polyreactivity
31 | QVQLVESGGGLVQAGGSLRLSCAASGYIFPYYTMGWYRQAPGKERELVAAITIGGSTYYADSVKGRFTISRDNAKNTVYLKMNSLKPEDTAVYYCAAKYYDYLYRYIMEYWGQGTQVTVSS | low polyreactivity
32 | QVQLVESGGGLVQAGGSLRLSCAASGYIFQPYAMGWYRQAPGKERELVAAISWRGGTTYYADSVKGRFTISRDNAKITVYLQMNSLKPEDTAVYDCAKDYYYGLDHYGYWGQGTQVTVSS | low polyreactivity
33 | QVQLVESGGGLVQAGGSLRLSCAASGYIFRLYAMGWYRQAPGKERELVATITASGGTYYADSVKGRFTISRDNAKNTVYLQMNSLKPEDTAVYYCAAAKLRRLSRVRYGYWGQGTQVTVSS | high polyreactivity
34 | QVQLVESGGGLVQAGGSLRLSCAASGYIFRQNAMGWYRQAPGKERELVAAITWSGGSTYYADSVKGRFTISRDNAKNTVYLQMNSLKPEDTAVYYCNAYSYVAIRDGGDYWGQGTQVTVSS | low polyreactivity
35 | QVQLVESGGGLVQAGGSLRLSCAASGYIFRRYAMGWYRQAPGKERELVAAISKSGVSTYYADSVKGRFTISRDNAKNTVYLQMNSLKPEDTAVYYCAASSYTWGEDYWGQGTQVTVSS | high polyreactivity
36 | QVQLVESGGGLVQAGGSLRLSCAASGYIFRSYAMGWYRQAPGKERELVAAITRSGGSTYYADSVKGRFTISRDNAKNTVYLQMNSLKPEDTAVYYCAVLPRGSNGMDYWGQGTQVTVSS | low polyreactivity
37 | QVQLVESGGGLVQAGGSLRLSCAASGYIFRYNAMGWYRQAPGKERELVAAIRATGGSTYYADSVKGRFTISRDNAKNTVSLQMNSLKPEDTAVYYCNAGGQGRTYRYYYWGQGTQVTVSS | high polyreactivity
38 | QVQLVESGGGLVQAGGSLRLSCAASGYIFRYYAMGWYRQAPGKERELVAAISWNGGRTYYADSVKGRFTISRDNAKNTVYLQMNSLKPEDTAVYYCAARYWGDYFTEMNYWGQGTQVTVSS | high polyreactivity
39 | QVQLVESGGGLVQAGGSLRLSCAASGYIFRYYAMGWYRQAPGKERELVAAISWNGGRTYYADSVKGRFTISRDNAKNTVYLQMNSLKPEDTAVYYCNTYWDGAREYDYWGQGTQVTVSS | high polyreactivity
40 | QVQLVESGGGLVQAGGSLRLSCAASGYIFSGYAMGWYRQAPGKERELVAAISSSGGRTYYADSVKGRFTISRDNAKNTVYLQMNSLKPEDTAVYYCAADAVYYHFDYWGQGTQVTVSS | high polyreactivity
41 | QVQLVESGGGLVQAGGSLRLSCAASGYIFSGYAMGWYRQAPGKERELVAAISSSGGRTYYADSVKGRFTISRDNAKNTVYLQMNSLKPEDTAVYYCAARIRTVAHVDYDYWGQGTQVTVSS | high polyreactivity
42 | QVQLVESGGGLVQAGGSLRLSCAASGYIFSVYAMGWYRQAPGKERELVAAISSGGSTYYADSVKGRFTISRDNAKNTVYLQMNSLKPEDTAVYYCAAESEYVYWYYVDYDYWGQGTQVTVSS | high polyreactivity
43 | QVQLVESGGGLVQAGGSLRLSCAASGYIFSYNAMGWYRQAPGKERELVAAITASGGGTYYADSVKGRFTISRDNAKNTVYLQMNSLKPEDTAVYYCAADFNDHYYWYGQDYDYWGQGTQVTVSS | low polyreactivity

— the nanobody polyreactivity screen of Harvey et al. (2022)
